The values below come from paper PMC5081367.

B1: wild type Lck (WT) [not stated] / receptor for activated C kinase 1 (RACK1), endogenous in NIH3T3 [mouse (endogenous in NIH3T3)] (parent)
chain 1: MGCVCSSNPEDDWMENIDVCENCHYPIVPLDSKISLPIRNGSEVRDPLVTYEGSLPPASPLQDNLVIALHSYEPSHDGDLGFEKGEQLRILEQSGEWWKAQSLTTGQEGFIPFNFVAKANSLEPEPWFFKNLSRKDAERQLLAPGNTHGSFLIRESESTAGSFSLSVRDFDQNQGEVVKHYKIRNLDNGGFYISPRITFPGLHDLVRHYTNASDGLCTKLSRPCQTQKPQKPWWEDEWEVPRETLKLVERLGAGQFGEVWMGYYNGHTKVAVKSLKQGSMSPDAFLAEANLMKQLQHPRLVRLYAVVTQEPIYIITEYMENGSLVDFLKTPSGIKLNVNKLLDMAAQIAEGMAFIEEQNYIHRDLRAANILVSDTLSCKIADFGLARLIEDNEYTAREGAKFPIKWTAPEAINYGTFTIKSDVWSFGILLTEIVTHGRIPYPGMTNPEVIQNLERGYRMVRPDNCPEELYHLMMLCWKERPEDRPTFDYLRSVLDDFFTATEGQYQPQP
chain 2: not shown

The experiment covers variants of B1. As to the kind of experiment: co-immunoprecipitation (IP: RACK1, blot anti-Lck), quantified. The settings on record: with receptor for activated C kinase 1 (RACK1), NIH3T3 Lck infectants, three independent experiments, mean ± SD, parent: 1, read off a plot.
Turning to chain 1 R154K Y505F, the screen value came to 0.38.
For chain 1 Y505F the value was 1.
For chain 1 W97K Y505F, the screen value was 0.12.
